The experiment has as its target T1, Tiam1 (human (endogenous in MCF-7), UniProt Q13009 1-1591).
T1 construct: also called Rac1-GEF; source: endogenous, MCF-7 lysate
The experiment in a line: co-IP; anti-Tiam1 antibody, lysates of nt MCF-7 and of the lines that stably express the SDC4 constructs; Mg2+-lysis buffer (25 mM HEPES pH 7.5, 150 mM NaCl, 1% Igepal CA-630, 5 mM MgCl2, 1 mM EDTA, 2% glycerol); blot with anti-GFP-HRP or anti-Rac1. To be noted: partners not purified.

T1 sequence (Q13009 whole entry): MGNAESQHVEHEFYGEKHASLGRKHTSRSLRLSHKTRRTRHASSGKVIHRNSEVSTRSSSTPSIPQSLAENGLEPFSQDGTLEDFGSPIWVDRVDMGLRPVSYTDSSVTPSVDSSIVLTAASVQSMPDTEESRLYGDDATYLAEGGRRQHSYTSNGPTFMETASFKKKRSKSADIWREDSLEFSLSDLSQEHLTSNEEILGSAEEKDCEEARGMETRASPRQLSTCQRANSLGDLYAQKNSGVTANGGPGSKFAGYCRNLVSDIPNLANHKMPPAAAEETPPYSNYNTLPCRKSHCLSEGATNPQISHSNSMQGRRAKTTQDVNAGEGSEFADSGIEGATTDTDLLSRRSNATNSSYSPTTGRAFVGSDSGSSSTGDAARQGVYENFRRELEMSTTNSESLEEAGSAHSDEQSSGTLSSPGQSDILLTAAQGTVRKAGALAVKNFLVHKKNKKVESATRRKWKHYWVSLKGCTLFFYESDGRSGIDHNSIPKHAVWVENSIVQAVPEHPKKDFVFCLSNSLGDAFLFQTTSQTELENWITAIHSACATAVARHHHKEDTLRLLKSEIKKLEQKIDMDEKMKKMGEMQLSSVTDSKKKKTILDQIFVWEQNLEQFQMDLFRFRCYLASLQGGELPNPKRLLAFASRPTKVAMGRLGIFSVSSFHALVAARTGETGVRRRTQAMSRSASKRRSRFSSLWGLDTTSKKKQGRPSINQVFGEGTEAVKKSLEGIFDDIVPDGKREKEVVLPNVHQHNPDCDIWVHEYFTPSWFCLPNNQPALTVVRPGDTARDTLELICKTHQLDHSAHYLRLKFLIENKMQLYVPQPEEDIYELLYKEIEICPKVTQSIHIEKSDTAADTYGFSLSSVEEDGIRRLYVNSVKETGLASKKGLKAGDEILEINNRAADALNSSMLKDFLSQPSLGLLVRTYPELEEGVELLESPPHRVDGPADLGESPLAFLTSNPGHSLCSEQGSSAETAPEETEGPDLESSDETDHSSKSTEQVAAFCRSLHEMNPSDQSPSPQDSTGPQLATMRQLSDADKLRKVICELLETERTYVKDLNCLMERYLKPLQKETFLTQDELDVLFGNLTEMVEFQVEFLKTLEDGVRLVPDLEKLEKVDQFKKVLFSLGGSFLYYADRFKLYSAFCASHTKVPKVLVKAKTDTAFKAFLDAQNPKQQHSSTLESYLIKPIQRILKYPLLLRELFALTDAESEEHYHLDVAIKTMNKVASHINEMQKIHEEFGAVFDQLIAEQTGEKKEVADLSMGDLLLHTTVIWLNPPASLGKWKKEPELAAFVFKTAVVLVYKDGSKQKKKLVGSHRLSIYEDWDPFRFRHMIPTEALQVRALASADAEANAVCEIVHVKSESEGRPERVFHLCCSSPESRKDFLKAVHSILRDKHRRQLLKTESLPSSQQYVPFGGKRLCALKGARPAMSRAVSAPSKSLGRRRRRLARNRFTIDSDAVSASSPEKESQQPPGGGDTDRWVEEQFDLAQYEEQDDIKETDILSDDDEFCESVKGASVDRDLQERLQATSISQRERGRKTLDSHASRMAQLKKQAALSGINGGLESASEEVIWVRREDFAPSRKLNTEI

B1: Ser179Glu SDC4 (phosphomimetic), with GFP in the extracellular domain (natural protein, human, UniProt P31431 19-198, looked up)
chain: ESIRETEVIDPQDLLEGRYFSGALPDDEDVVGPGQESDDFELSGSGDLDDLEDSMIGPEVVHPLVPLDNHIPERAGSGSQVPTEPKKLEENEVIPKRISPVEESEDVSNKVSMSSTVQGSNIFERTEVLAALIVGGIVGILFAVFLILLLMYRMKKKDEGEYDLGKKPIYKKAPTNEFYA
notes: syndecan-4 (SDC4), human, GenBank CAG46871.1; GFP inserted into the extracellular domain at position 131; also called phosphomimetic SDC4; source: MCF-7, stably transfected, in lysate; not shown: GFP, internal (at position 131), kept
In the case of B1, the “fold binding against the non-phosphorylated SDC4” value was approximately 10 fold.

The record behind these values is article PMC5679609 (PLoS ONE, 2017).
